Measurements taken from IntAct's records for PubMed 19860830.

B1: Casein kinase I isoform alpha (Oryctolagus cuniculus (Rabbit)), P67828 (parent)
chain: MASSSGSKAEFIVGGKYKLVRKIGSGSFGDIYLAINITNGEEVAVKLESQKARHPQLLYESKLYKILQGGVGIPHIRWYGQEKDYNVLVMDLLGPSLEDLFNFCSRRFTMKTVLMLADQMISRIEYVHTKNFIHRDIKPDNFLMGIGRHCNKLFLIDFGLAKKYRDNRTRQHIPYREDKNLTGTARYASINAHLGIEQSRRDDMESLGYVLMYFNRTSLPWQGLKAATKKQKYEKISEKKMSTPVEVLCKGFPAEFAMYLNYCRGLRFEEAPDYMYLRQLFRILFRTLNHQYDYTFDWTMLKQKAAQQAASSSGQGQQAQTPTGF
partner: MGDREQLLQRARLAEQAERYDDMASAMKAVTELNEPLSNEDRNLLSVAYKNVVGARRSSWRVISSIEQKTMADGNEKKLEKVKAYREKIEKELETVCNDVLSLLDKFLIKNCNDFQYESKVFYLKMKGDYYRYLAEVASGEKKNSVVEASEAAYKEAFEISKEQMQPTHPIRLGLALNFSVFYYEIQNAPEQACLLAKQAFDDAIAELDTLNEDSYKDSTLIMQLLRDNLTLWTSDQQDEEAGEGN

Variants of: B1
Conditions: with 1433f_human YWHAH

| effect of a mutation on the interaction | Variant |
| --- | --- |
| disrupting interaction | MASSSGSKAEFIVGGKYKLVRKIGSGSFGDIYLAINITNGEEVAVKLESQKARHPQLLYESKLYKILQGGVGIPHIRWYGQEKDYNVLVMDLLGPSLEDLFNFCSRRFTMKTVLMLADQMISRIEYVHTKNFIHRDIKPDNFLMGIGRHCNKLFLIDFGLAKKYRDNRTRQHIPYREDKNLTGTARYASINAHLGIEQSRRDDMESLGYVLMYFNRTSLPWQGLKAATKKQKYEKISEKKMATPVEVLCKGFPAEFAMYLNYCRGLRFEEAPDYMYLRQLFRILFRTLNHQYDYTFDWTMLKQKAAQQAASSSGQGQQAQTPTGF [S242A] |
| disrupting interaction | MASSSGSKAEFIVGGKYKLVRKIGSGSFGDIYLAINITNGEEVAVKLESQKARHPQLLYESKLYKILQGGVGIPHIRWYGQEKDYNVLVMDLLGPSLEDLFNFCSRRFTMKTVLMLADQMISRIEYVHTKNFIHRDIKPDNFLMGIGRHCNKLFLIDFGLAKKYRDNRTRQHIPYREDKNLTGTARYASINAHLGIEQSRRDDMESLGYVLMYFNRTALPWQGLKAATKKQKYEKISEKKMSTPVEVLCKGFPAEFAMYLNYCRGLRFEEAPDYMYLRQLFRILFRTLNHQYDYTFDWTMLKQKAAQQAASSSGQGQQAQTPTGF [S218A] |

Variants of: B1
Conditions: with 1433f_human YWHAH
Remark: another data set of the same source

| effect of a mutation on the interaction | Variant |
| --- | --- |
| decreasing interaction | MASSSGSKAEFIVGGKYKLVRKIGSGSFGDIYLAINITNGEEVAVKLESQKARHPQLLYESKLYKILQGGVGIPHIRWYGQEKDYNVLVMDLLGPSLEDLFNFCSRRFTMKTVLMLADQMISRIEYVHTKNFIHRDIKPDNFLMGIGRHCNKLFLIDFGLAKKYRDNRTRQHIPYREDKNLTGTARYASINAHLGIEQSRRDDMESLGYVLMYFNRTALPWQGLKAATKKQKYEKISEKKMSTPVEVLCKGFPAEFAMYLNYCRGLRFEEAPDYMYLRQLFRILFRTLNHQYDYTFDWTMLKQKAAQQAASSSGQGQQAQTPTGF [S218A] |
